Experimental data: article PMC6275156

Target: BB2
Test: SEC-MALS

stoichiometry N: 4
Substance: BB2
